14 molecules from US20060068468A1 (ACCELERON PHARMA, published 2006) can be followed below.

The target in experiment [1] is T1, GDF-11 (UniProt O95390 299-407).
T1 construct: also called Growth and Differentiation Factor-11; BMP11
T1 sequence (looked up): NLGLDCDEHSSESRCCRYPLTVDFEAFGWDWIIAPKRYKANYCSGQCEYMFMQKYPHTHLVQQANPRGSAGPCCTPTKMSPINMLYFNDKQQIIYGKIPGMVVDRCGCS
The experiment can be described thus: BiaCore, ligand immobilized on CM5 chip. Here is the method: (§1) GDF-11 or Activin A (“ActA”) were immobilized on a BiaCore CM5 chip using standard amine coupling procedure. The ActRIIB-Fc mutant or wild-type protein was loaded onto the system, and binding was measured.
On the technique in general: In SPR one partner is held on a chip, and binding of the other changes the refractive index at the surface.

Experiment [2] addresses T2, Activin A (UniProt P08476 311-426).
T2 construct: also called ActA
T2 sequence (looked up): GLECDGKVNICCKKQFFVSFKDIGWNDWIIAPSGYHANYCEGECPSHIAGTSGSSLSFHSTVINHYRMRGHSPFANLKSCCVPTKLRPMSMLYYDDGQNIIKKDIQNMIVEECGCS
The experiment in a line: BiaCore, ligand immobilized on CM5 chip. As to the method:
as §1

Experiment [3] has as its target T1, GDF-11. The experiment in a line: BiaCore (SPR); ligand amine-coupled to CM5 chip, ActRIIB-Fc injected. Here is the method: as §1

B1: ActRIIB-Fc D80A (Fc fusion)
chain: SGRGEAETRECIYYNANWELERTNQSGLERCEGEQDKRLHCYASWANSSGTIELVKKGCWLADFNCYDRQECVATEENPQVYFCCCEGNFCNERFTHLPEAGGGTHTCPPCPAPELLGGPSVFLFPPKPKDTLMISRTPEVTCVVVDVSHEDPEVKFNWYVDGVEVHNAKTKPREEQYNSTYRVVSVLTVLHQDWLNGKEYKCKVSNKALPVPIEKTISKAKGQPREPQVYTLPPSREEMTKNQVSLTCLVKGFYPSDIAVEWESNGQPENNYKTTPPVLDSDGSFFLYSKLTVDKSRWQQGNVFSCSVMHEALHNHYTQKSLSLSPGK
notes: Mutation in the background ActRIIB-Fc
For the molecule B1, the binding result in experiment [1] and in experiment [2] was “no binding” throughout.

B2: ActRIIB-Fc D80I (Fc fusion)
chain: SGRGEAETRECIYYNANWELERTNQSGLERCEGEQDKRLHCYASWANSSGTIELVKKGCWLIDFNCYDRQECVATEENPQVYFCCCEGNFCNERFTHLPEAGGGTHTCPPCPAPELLGGPSVFLFPPKPKDTLMISRTPEVTCVVVDVSHEDPEVKFNWYVDGVEVHNAKTKPREEQYNSTYRVVSVLTVLHQDWLNGKEYKCKVSNKALPVPIEKTISKAKGQPREPQVYTLPPSREEMTKNQVSLTCLVKGFYPSDIAVEWESNGQPENNYKTTPPVLDSDGSFFLYSKLTVDKSRWQQGNVFSCSVMHEALHNHYTQKSLSLSPGK
notes: as for B1
Turning to B2, the binding result in experiment [2] is listed as “no binding”; in experiment [3], “binds”.

B3: ActRIIB-Fc D80R (Fc fusion)
chain: SGRGEAETRECIYYNANWELERTNQSGLERCEGEQDKRLHCYASWANSSGTIELVKKGCWLRDFNCYDRQECVATEENPQVYFCCCEGNFCNERFTHLPEAGGGTHTCPPCPAPELLGGPSVFLFPPKPKDTLMISRTPEVTCVVVDVSHEDPEVKFNWYVDGVEVHNAKTKPREEQYNSTYRVVSVLTVLHQDWLNGKEYKCKVSNKALPVPIEKTISKAKGQPREPQVYTLPPSREEMTKNQVSLTCLVKGFYPSDIAVEWESNGQPENNYKTTPPVLDSDGSFFLYSKLTVDKSRWQQGNVFSCSVMHEALHNHYTQKSLSLSPGK
notes: as for B1
For the molecule B3, the binding result in experiment [1] and in experiment [2] was “no binding” each time.

B4: ActRIIB-Fc W78A (Fc fusion)
chain: SGRGEAETRECIYYNANWELERTNQSGLERCEGEQDKRLHCYASWANSSGTIELVKKGCALDDFNCYDRQECVATEENPQVYFCCCEGNFCNERFTHLPEAGGGTHTCPPCPAPELLGGPSVFLFPPKPKDTLMISRTPEVTCVVVDVSHEDPEVKFNWYVDGVEVHNAKTKPREEQYNSTYRVVSVLTVLHQDWLNGKEYKCKVSNKALPVPIEKTISKAKGQPREPQVYTLPPSREEMTKNQVSLTCLVKGFYPSDIAVEWESNGQPENNYKTTPPVLDSDGSFFLYSKLTVDKSRWQQGNVFSCSVMHEALHNHYTQKSLSLSPGK
notes: as for B1
With B4, the binding result in experiment [1] and in experiment [2] was “no binding” throughout.

B5: ActRIIB-Fc D80N (Fc fusion)
chain: SGRGEAETRECIYYNANWELERTNQSGLERCEGEQDKRLHCYASWANSSGTIELVKKGCWLNDFNCYDRQECVATEENPQVYFCCCEGNFCNERFTHLPEAGGGTHTCPPCPAPELLGGPSVFLFPPKPKDTLMISRTPEVTCVVVDVSHEDPEVKFNWYVDGVEVHNAKTKPREEQYNSTYRVVSVLTVLHQDWLNGKEYKCKVSNKALPVPIEKTISKAKGQPREPQVYTLPPSREEMTKNQVSLTCLVKGFYPSDIAVEWESNGQPENNYKTTPPVLDSDGSFFLYSKLTVDKSRWQQGNVFSCSVMHEALHNHYTQKSLSLSPGK
notes: as for B1
On to B5, for which the binding result in experiment [1] and in experiment [2] was “no binding” throughout.

B6: ActRIIB-Fc K55A (Fc fusion)
chain: SGRGEAETRECIYYNANWELERTNQSGLERCEGEQDARLHCYASWANSSGTIELVKKGCWLDDFNCYDRQECVATEENPQVYFCCCEGNFCNERFTHLPEAGGGTHTCPPCPAPELLGGPSVFLFPPKPKDTLMISRTPEVTCVVVDVSHEDPEVKFNWYVDGVEVHNAKTKPREEQYNSTYRVVSVLTVLHQDWLNGKEYKCKVSNKALPVPIEKTISKAKGQPREPQVYTLPPSREEMTKNQVSLTCLVKGFYPSDIAVEWESNGQPENNYKTTPPVLDSDGSFFLYSKLTVDKSRWQQGNVFSCSVMHEALHNHYTQKSLSLSPGK
notes: as for B1
For the molecule B6, the binding result in experiment [1] is given as “no binding”.

B7: ActRIIB-Fc D80F (Fc fusion)
chain: SGRGEAETRECIYYNANWELERTNQSGLERCEGEQDKRLHCYASWANSSGTIELVKKGCWLFDFNCYDRQECVATEENPQVYFCCCEGNFCNERFTHLPEAGGGTHTCPPCPAPELLGGPSVFLFPPKPKDTLMISRTPEVTCVVVDVSHEDPEVKFNWYVDGVEVHNAKTKPREEQYNSTYRVVSVLTVLHQDWLNGKEYKCKVSNKALPVPIEKTISKAKGQPREPQVYTLPPSREEMTKNQVSLTCLVKGFYPSDIAVEWESNGQPENNYKTTPPVLDSDGSFFLYSKLTVDKSRWQQGNVFSCSVMHEALHNHYTQKSLSLSPGK
notes: as for B1
As for B7, the binding result in experiment [1] and in experiment [2] was “no binding” each time.

B8: ActRIIB-Fc E37A (Fc fusion)
chain: SGRGEAETRECIYYNANWALERTNQSGLERCEGEQDKRLHCYASWANSSGTIELVKKGCWLDDFNCYDRQECVATEENPQVYFCCCEGNFCNERFTHLPEAGGGTHTCPPCPAPELLGGPSVFLFPPKPKDTLMISRTPEVTCVVVDVSHEDPEVKFNWYVDGVEVHNAKTKPREEQYNSTYRVVSVLTVLHQDWLNGKEYKCKVSNKALPVPIEKTISKAKGQPREPQVYTLPPSREEMTKNQVSLTCLVKGFYPSDIAVEWESNGQPENNYKTTPPVLDSDGSFFLYSKLTVDKSRWQQGNVFSCSVMHEALHNHYTQKSLSLSPGK
notes: as for B1
As to B8, the binding result in experiment [1] and in experiment [2] was “no binding” in each case.

B9: ActRIIB-Fc D80M (Fc fusion)
chain: SGRGEAETRECIYYNANWELERTNQSGLERCEGEQDKRLHCYASWANSSGTIELVKKGCWLMDFNCYDRQECVATEENPQVYFCCCEGNFCNERFTHLPEAGGGTHTCPPCPAPELLGGPSVFLFPPKPKDTLMISRTPEVTCVVVDVSHEDPEVKFNWYVDGVEVHNAKTKPREEQYNSTYRVVSVLTVLHQDWLNGKEYKCKVSNKALPVPIEKTISKAKGQPREPQVYTLPPSREEMTKNQVSLTCLVKGFYPSDIAVEWESNGQPENNYKTTPPVLDSDGSFFLYSKLTVDKSRWQQGNVFSCSVMHEALHNHYTQKSLSLSPGK
notes: as for B1
With B9, the binding result in experiment [1] and in experiment [2] was “no binding” in each case.

B10: ActRIIB-Fc F82A (Fc fusion)
chain: SGRGEAETRECIYYNANWELERTNQSGLERCEGEQDKRLHCYASWANSSGTIELVKKGCWLDDANCYDRQECVATEENPQVYFCCCEGNFCNERFTHLPEAGGGTHTCPPCPAPELLGGPSVFLFPPKPKDTLMISRTPEVTCVVVDVSHEDPEVKFNWYVDGVEVHNAKTKPREEQYNSTYRVVSVLTVLHQDWLNGKEYKCKVSNKALPVPIEKTISKAKGQPREPQVYTLPPSREEMTKNQVSLTCLVKGFYPSDIAVEWESNGQPENNYKTTPPVLDSDGSFFLYSKLTVDKSRWQQGNVFSCSVMHEALHNHYTQKSLSLSPGK
notes: as for B1
With B10, in experiment [3], the binding result was “binds”.

B11: ActRIIB-Fc D80K (Fc fusion)
chain: SGRGEAETRECIYYNANWELERTNQSGLERCEGEQDKRLHCYASWANSSGTIELVKKGCWLKDFNCYDRQECVATEENPQVYFCCCEGNFCNERFTHLPEAGGGTHTCPPCPAPELLGGPSVFLFPPKPKDTLMISRTPEVTCVVVDVSHEDPEVKFNWYVDGVEVHNAKTKPREEQYNSTYRVVSVLTVLHQDWLNGKEYKCKVSNKALPVPIEKTISKAKGQPREPQVYTLPPSREEMTKNQVSLTCLVKGFYPSDIAVEWESNGQPENNYKTTPPVLDSDGSFFLYSKLTVDKSRWQQGNVFSCSVMHEALHNHYTQKSLSLSPGK
notes: as for B1
On to B11, for which the binding result in experiment [1] and in experiment [2] was “no binding” throughout.

B12: ActRIIB-Fc WT (64R) (Fc fusion)
chain: SGRGEAETRECIYYNANWELERTNQSGLERCEGEQDKRLHCYASWRNSSGTIELVKKGCWLDDFNCYDRQECVATEENPQVYFCCCEGNFCNERFTHLPEAGGGTHTCPPCPAPELLGGPSVFLFPPKPKDTLMISRTPEVTCVVVDVSHEDPEVKFNWYVDGVEVHNAKTKPREEQYNSTYRVVSVLTVLHQDWLNGKEYKCKVSNKALPVPIEKTISKAKGQPREPQVYTLPPSREEMTKNQVSLTCLVKGFYPSDIAVEWESNGQPENNYKTTPPVLDSDGSFFLYSKLTVDKSRWQQGNVFSCSVMHEALHNHYTQKSLSLSPGK
notes: also called A64R
Consider B12, for which the affinity in experiment [3], expressed as Kd, was 86 nM.

B13: ActRIIB-Fc R56A (Fc fusion)
chain: SGRGEAETRECIYYNANWELERTNQSGLERCEGEQDKALHCYASWANSSGTIELVKKGCWLDDFNCYDRQECVATEENPQVYFCCCEGNFCNERFTHLPEAGGGTHTCPPCPAPELLGGPSVFLFPPKPKDTLMISRTPEVTCVVVDVSHEDPEVKFNWYVDGVEVHNAKTKPREEQYNSTYRVVSVLTVLHQDWLNGKEYKCKVSNKALPVPIEKTISKAKGQPREPQVYTLPPSREEMTKNQVSLTCLVKGFYPSDIAVEWESNGQPENNYKTTPPVLDSDGSFFLYSKLTVDKSRWQQGNVFSCSVMHEALHNHYTQKSLSLSPGK
notes: as for B1
As for B13, the binding result in experiment [1] and in experiment [2] was “no binding” in each case.

B14: ActRIIB-Fc D80G (Fc fusion)
chain: SGRGEAETRECIYYNANWELERTNQSGLERCEGEQDKRLHCYASWANSSGTIELVKKGCWLGDFNCYDRQECVATEENPQVYFCCCEGNFCNERFTHLPEAGGGTHTCPPCPAPELLGGPSVFLFPPKPKDTLMISRTPEVTCVVVDVSHEDPEVKFNWYVDGVEVHNAKTKPREEQYNSTYRVVSVLTVLHQDWLNGKEYKCKVSNKALPVPIEKTISKAKGQPREPQVYTLPPSREEMTKNQVSLTCLVKGFYPSDIAVEWESNGQPENNYKTTPPVLDSDGSFFLYSKLTVDKSRWQQGNVFSCSVMHEALHNHYTQKSLSLSPGK
notes: as for B1
In the case of B14, the binding result in experiment [1] and in experiment [2] was “no binding” in each case.
